“Also recorded” adds a separate entry of the source.
What was measured:
[1] = system: EBI-3 KO mice; assay: cold stimulation experiment at 4° C. after rmIL-27 treatment of EBI-3 KO mice; type: in vivo, mouse; details: rmIL-27 100 μg/kg intraperitoneally for 7 consecutive days, then cold stimulation at 4° C.
Method: Cold stimulation experiments were performed in a temperature controlled cold room. Mice were placed individually in individual cages (without bedding) at 4° C. The mice had free access to food and water. Rectal core body temperatures were recorded every 2 hours using a digital thermometer and a rectal thermocouple probe (TH-212, HICHANCE, China). If the core body temperature fell below 20° C., the individual mice were euthanized and scored as events for survival analysis.
8-week-old WT mice were fed with HFD for 32 weeks and randomly divided into 2 groups. The mice were injected intraperitoneally with rmIL-27 (100 μg/kg) or PBS for 15 consecutive days, and then, metabolic analysis was performed. 12-month-old EBI-3 KO mice were randomly divided into 2 groups, and injected intraperitoneally with rmIL-27 (100 μg/kg) or PBS for 7 consecutive days. The mice were then subjected to a cold stimulation experiment at 4° C.
As for FIG. 7A-FIG. 7C: 8-week-old Il27ra^f/f and Ucp1-Cre Il27ra^f/f mice were fed with HFD for 10 weeks. After HFD treatment for 10 weeks, GTT (FIG. 7A) and ITT (FIG. 7B) (n=5-6) tests were performed, and adipose tissue and livers were collected and weighed (FIG. 7C, n=5-6). […] Expression of UCP1 was detected by immunoblot. […] Expression of UCP1 or PPARα was analyzed by an immunoblot. […] A band density was quantified and normalized with ImageJ. […]

[2] = system: primary beige adipocytes; assay: primary beige adipocytes treated with IL-27 in vitro, immunoblot analysis; type: cell-based, mouse; details: rmIL-27 100 ng/ml
Method: A whole cell lysate or tissue lysate was extracted using an RIPA lysis buffer (Beyotime, China) supplemented with a complete protease inhibitor (Roche) and a phosphatase inhibitor Cocktail 2 (P5726, Sigma), and a supernatant was used for subsequent analysis. Proteins were diluted in a Loading dye (BL502A, Bio-sharp), heated at 95° C. for 10 min, and separated on 4-12% polyacrylamide gel. The proteins were transferred to polyvinylidene fluoride membranes and western blot experiments were performed with the commercial antibodies and methods-reagents mentioned in the drawing.
Inguinal subcutaneous adipose tissue was minced and digested at 37° C. for 45 min in PBS containing collagenase II (1 mg/ml), and a tissue suspension was filtered by a 100 μm cell filter and centrifuged at 600 g for 5 min, such that a stromal vascular fraction (SVF) was granulated. After granulation, the product was further filtered by a 40 μm cell filter and placed on a collagen-coated plate. After overnight culturing, a supernatant containing non-adherent cells was removed. Precursor adipocytes were grown in DMEM containing 10% FBS and insulin (5 μg/ml) for fusion. The product was treated for 2 days with dexamethasone (1 μM), 3-isobutyl-1-methylxanthine (IBMX, 0.5 mM), insulin (5 μg/ml), indomethacin (125 nM) and rosiglitazone (1 μM) to induce differentiation of the fused cells, and then independently treated for another 5 days with insulin (5 μg/ml) and triiodothyronine (T3, 1 nM). On day 7, the cells were pretreated overnight with and without IL-27 (100 ng/ml) and then treated with isoproterenol (10 μM) or forskolin (10 μM) for 4-6 hours. IL-27 (100 ng/ml) was added for treatment for 0-120 min on day 7 for protein phosphorylation analysis, or for 12-24 h for protein expression level detection. For signal inhibition experiments, either the STAT3 inhibitor (C188-9, 10 μM) or the p38 MAPK inhibitor (SB203580, 10 μM) was added to a medium 0.5 h prior to and during IL-27 treatment.
FIG. 3A-FIG. 3M show promotion of heat generation by IL-27. As for FIG. 3A: primary beige adipocytes were generated in vitro from an SVF of WT SCW and then treated with rmIL-27 (100 ng/ml) or PBS for 24 hours. Cells were lysed and a protein extract was used for immunoblot analysis. As for FIG. 3B: immunoblot analysis of phosphorylation of the protein in the WT primary beige adipocyte extract treated with the rmIL-27 (100 ng/ml) for a specified time was shown. As for FIG. 3C: the primary beige adipocytes derived from WT SCW were generated in vitro. The STAT3 inhibitor (C188-9, 10 μM) or p38 MAPK inhibitor (SB203580, 10 μM) was added to a medium 0.5 hours prior to culturing and in duration of rmIL-27 treatment (100 ng/ml for 12 hours). Cell lysis and the representative immunoblot of the protein extract were shown. As for FIG. 3D-FIG. 3J: WT mice were fed with HFD for 32 weeks and then injected intraperitoneally. Every other day, rmIL-27 (100 μg/kg) or PBS was injected for 15 days. As for FIG. 3D: body weight was recorded at specified time points (n=8). As for FIG. 3E: after rmIL-27 treatment for 15 days, adipose tissue was collected and weighed (n=6-8) for a glucose tolerance test (FIG. 3F, n=8) and an insulin tolerance test (FIG. 3G, n=8). As for FIG. 3H: the mice were fasted overnight and then injected intraperitoneally with 0.75 U/kg insulin (15 min). Immunoblot analysis of pAKT (pSer473) in epididymal fat was performed. As for FIG. 3I: after rmIL-27 treatment for 15 days, oil-red O liver tissue staining was performed, with the scale=50 μm. As for FIG. 3J-FIG. 3M: UCP1-KO mice were fed with HFD for 20 weeks and then injected intraperitoneally with rmIL-27 (100 μg/kg) or PBS every other day for 15 days. As for FIG. 3J: body weight was recorded at specified time points (n=6). As for FIG. 3K: adipose tissue and livers were collected and weighed after rmIL-27 treatment for 15 days (n=6), and GTT (FIG. 3L, n=6) and ITT (FIG. 3M, n=4) tests were performed after rmIL-27 treatment for 15 days. […]

[3] = 0-120 min, immunoblot (FIG. 3B)

B1: IL-27: Recombinant mouse IL-27 (EBI-3/p28 heterodimer cytokine), purchased from Biolegend (577408) (protein, UniProt O35228 19-228; Q8K3I6 29-234, looked up)
Interleukin-27 subunit beta: YTETALVALSQPRVQCHASRYPVAVDCSWTPLQAPNSTRSTSFIATYRLGVATQQQSQPCLQRSPQASRCTIPDVHLFSTVPYMLNVTAVHPGGASSSLLAFVAERIIKPDPPEGVRLRTAGQRLQVLWHPPASWPFPDIFSLKYRLRYRRRGASHFRQVGPIEATTFTLRNSKPHAKYCIQVSAQDLTDYGKPSDWSLPGQVESAPHKP
Interleukin-27 subunit alpha: FPTDPLSLQELRREFTVSLYLARKLLSEVQGYVHSFAESRLPGVNLDLLPLGYHLPNVSLTFQAWHHLSDSERLCFLATTLRPFPAMLGGLGTQGTWTSSEREQLWAMRLDLRDLHRHLRFQVLAAGFKCSKEEEDKEEEEEEEEEEKKLPLGALGGPNQVSSQVSWPQLLYTYQLLHSLELVLSRAVRDLLLLSLPRRPGSAWDS
In the case of B1, the UCP1-mediated heat generation [1] is reported as “improved”, the “body temperature / hypothermia in cold stimulation” value ([1]; rectal temperature) is reported as “avoided low temperatures; also recorded: reverse hypothermia” and the “Phosphorylation of p38 MAPK” value [2, 3] is reported as “significantly increased”. For the same molecule, the pSTAT3 [2, 3] was “only transiently induced and rapidly regressed”, the “expression of UCP1” value ([2]; 24 hours, immunoblot (FIG. 3A)) was “significantly increased” and the “expression of peroxisome proliferator-activated receptor α (PPARα)” value ([2]; 24 hours, immunoblot (FIG. 3A)) was “up-regulated”. For the same molecule, the “expression of peroxisome proliferator-activated receptor γ co-activator 1α (PGC-1α)” value ([2]; 24 hours, immunoblot (FIG. 3A)) was “up-regulated” and the “activation of ATF2” value ([2]; immunoblot (FIG. 3A-3C)) was “enhanced”.

Reference: patent publication US20230391843A1, “COMPOSITION AND METHOD FOR CONTROLLING HEAT GENERATION WITHIN ORGANISM, AND USE” (GUANGDONG JIANTEBO BIOTECHNOLOGY CO., LTD., priority 2021, published 2023)
